Substitutions are numbered along the chain they refer to. Numbers in names are those of the source.

In the experiment the target is C-terminal peptide of cystic fibrosis transmembrane conductance regulator (CFTR), F-Ahx-VQDTLR. The experiment is described as follows: fluorescence polarisation. In general terms: Fluorescence polarisation rises when a labelled molecule tumbles more slowly, as on binding a larger partner.

B1: NHERF1 PDZ1 domain (N-terminal PDZ domain of NHERF1/EBP50), wild type (domain or fragment)
chain: LPRLCCLEKGPNGYGFHLHGEKGKLGQYIRLVEPGSPAEKAGLLAGDRLVEVNGENVEKETHQQVVSRIRAALNAVRLLVVDPETDEQL
Consider B1, for which the dissociation constant Kd (as a rule, the constant that tells how readily two partners part at equilibrium) amounted to 13 µM.

B2: NHERF1 PDZ1 domain Y38A/R40A (domain or fragment)
chain: B1 chain with Y28A, R30A
B2 had a Kd of 14 µM.

B3: NHERF1 PDZ1 domain K32A/K34A (domain or fragment)
chain: B1 chain with K22A, K24A
For B3, the dissociation constant (Kd) was determined as 13 µM.

For the origin of these results see paper PMC3526836.
